Experimental data published in PMC5599508.

How the values were obtained:
[1] = target: free alpha/beta-tubulin dimers from porcine brain (pig (purified from porcine brain)) (UniProt P02550)
[2] = target: T15 peptide derived from the human α-tubulin αK40 loop (human)
[3] = target: T9 peptide derived from the human α-tubulin αK40 loop (human)

Sequence of UniProt P02550 (P02550 whole entry, chain 1 of 2): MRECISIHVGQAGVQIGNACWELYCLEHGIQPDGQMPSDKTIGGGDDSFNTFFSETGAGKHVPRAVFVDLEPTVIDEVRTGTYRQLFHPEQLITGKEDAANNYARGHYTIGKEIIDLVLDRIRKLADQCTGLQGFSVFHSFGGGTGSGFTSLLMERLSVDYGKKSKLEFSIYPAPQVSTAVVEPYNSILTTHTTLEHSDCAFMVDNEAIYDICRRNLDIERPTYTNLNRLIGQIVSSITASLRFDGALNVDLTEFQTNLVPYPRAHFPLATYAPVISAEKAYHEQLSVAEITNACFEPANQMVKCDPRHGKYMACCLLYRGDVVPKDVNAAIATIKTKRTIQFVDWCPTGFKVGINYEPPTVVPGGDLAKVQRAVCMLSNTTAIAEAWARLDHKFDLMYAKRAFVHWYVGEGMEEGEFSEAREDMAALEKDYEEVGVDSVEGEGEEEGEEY
Sequence of UniProt P02550 (P02554 whole entry, chain 2 of 2, further chain): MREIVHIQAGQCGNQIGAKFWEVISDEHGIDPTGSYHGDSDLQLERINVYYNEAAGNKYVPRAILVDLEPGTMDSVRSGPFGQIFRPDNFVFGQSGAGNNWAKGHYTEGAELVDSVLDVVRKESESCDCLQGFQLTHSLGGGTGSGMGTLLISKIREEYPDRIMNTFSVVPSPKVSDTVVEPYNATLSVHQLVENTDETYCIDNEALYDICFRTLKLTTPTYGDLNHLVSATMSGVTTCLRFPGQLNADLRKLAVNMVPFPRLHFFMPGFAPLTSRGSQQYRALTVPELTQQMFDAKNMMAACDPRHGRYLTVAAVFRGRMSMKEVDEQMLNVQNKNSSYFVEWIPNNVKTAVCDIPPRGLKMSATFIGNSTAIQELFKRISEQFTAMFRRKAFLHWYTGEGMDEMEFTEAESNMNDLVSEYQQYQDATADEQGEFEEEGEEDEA

- KM of the deacetylation of free tubulin dimers by HDAC6 (steady-state kinetics, Western blot quantification) [1]: 0.23 µM
- KM of the deacetylation of the acetylated αK40-derived peptide by HDAC6 (HPLC-based assay) [2]: 328 µM
- KM of the deacetylation of the acetylated αK40-derived peptide by HDAC6 (HPLC-based assay) [3]: 88 µM
Substance: untagged full-length human histone deacetylase 6 (from UniProt Q9UBN7-1 1-1215) (enzyme)
